Positions count from the first letter of the chain named.
T1: human CD22 protein (recombinant CD22 extracellular domain) (human, UniProt P20273 20-687)
T1 construct: extracellular domain; also called SIGLEC-2
T1 sequence (looked up): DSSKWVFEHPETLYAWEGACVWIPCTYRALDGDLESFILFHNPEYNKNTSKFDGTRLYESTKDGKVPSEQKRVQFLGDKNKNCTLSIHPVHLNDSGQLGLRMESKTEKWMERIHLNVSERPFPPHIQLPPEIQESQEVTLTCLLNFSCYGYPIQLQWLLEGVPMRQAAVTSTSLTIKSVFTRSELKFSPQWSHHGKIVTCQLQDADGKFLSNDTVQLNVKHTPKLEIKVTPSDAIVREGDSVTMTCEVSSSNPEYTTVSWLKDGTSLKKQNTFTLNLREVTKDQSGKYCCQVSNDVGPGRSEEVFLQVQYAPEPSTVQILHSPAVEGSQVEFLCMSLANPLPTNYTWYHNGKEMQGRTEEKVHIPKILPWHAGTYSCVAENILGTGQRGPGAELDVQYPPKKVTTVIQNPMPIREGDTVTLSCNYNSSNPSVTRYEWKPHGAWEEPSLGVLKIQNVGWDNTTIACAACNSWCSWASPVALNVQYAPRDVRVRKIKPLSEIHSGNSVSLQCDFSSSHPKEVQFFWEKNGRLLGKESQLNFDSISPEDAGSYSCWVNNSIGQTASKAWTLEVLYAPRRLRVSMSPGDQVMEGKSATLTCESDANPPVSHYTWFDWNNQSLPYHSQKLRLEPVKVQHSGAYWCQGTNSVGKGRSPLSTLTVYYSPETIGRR

T2: human CD22 on CD22-positive Burkitt's lymphoma cells (Daudi, Raji, Ramos) (human, UniProt P20273 20-847)
T2 construct: whole, on cells; also called CD22+ cells; CD22 positive cells
T2 sequence (looked up): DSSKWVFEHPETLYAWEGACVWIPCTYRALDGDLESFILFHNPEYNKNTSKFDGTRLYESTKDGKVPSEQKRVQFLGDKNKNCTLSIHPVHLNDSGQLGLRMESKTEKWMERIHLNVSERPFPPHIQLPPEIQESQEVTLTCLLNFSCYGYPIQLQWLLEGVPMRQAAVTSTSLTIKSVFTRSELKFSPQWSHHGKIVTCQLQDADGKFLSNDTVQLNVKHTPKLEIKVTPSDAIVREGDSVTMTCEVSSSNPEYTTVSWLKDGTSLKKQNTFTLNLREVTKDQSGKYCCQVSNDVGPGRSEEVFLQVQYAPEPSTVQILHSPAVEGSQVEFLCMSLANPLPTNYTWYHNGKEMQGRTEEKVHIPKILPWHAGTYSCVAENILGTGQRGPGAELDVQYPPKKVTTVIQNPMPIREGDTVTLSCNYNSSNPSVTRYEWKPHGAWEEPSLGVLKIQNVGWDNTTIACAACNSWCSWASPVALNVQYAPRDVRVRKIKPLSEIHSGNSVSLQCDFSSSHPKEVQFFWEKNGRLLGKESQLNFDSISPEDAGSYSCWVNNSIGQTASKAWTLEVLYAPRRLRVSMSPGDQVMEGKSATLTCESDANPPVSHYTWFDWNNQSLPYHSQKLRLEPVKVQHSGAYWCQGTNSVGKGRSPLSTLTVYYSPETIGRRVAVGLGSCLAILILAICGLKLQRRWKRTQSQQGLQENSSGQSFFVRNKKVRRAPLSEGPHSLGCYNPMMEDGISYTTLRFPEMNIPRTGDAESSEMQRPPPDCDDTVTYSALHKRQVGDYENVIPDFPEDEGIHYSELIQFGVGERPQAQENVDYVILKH

B1: anti-CD22 heavy chain-only antibody with the VH of SEQ ID NO: 43 (antibody, V domains shown)
VH: QLQLQESGPGLVKPSETLSLTCTVSGGSISSGDYYWGWIRQPPGKGLEWIGHIYYSGATYYNPSLKNRVTISVDTSRNQFSLKLSSVTAADTAVYYCTRDDSSNWRSRGQGTLVTVSS
notes: Heavy chain-only antibody (UniAb), human IgG
B2: anti-CD22 heavy chain-only antibody with the VH of SEQ ID NO: 66 (antibody, V domains shown)
VH: B1 VH with G32S, D33S, H52S, A58S, R77K, D100E
notes: as for B1
B3: anti-CD22 heavy chain-only antibody with the VH of SEQ ID NO: 63 (antibody, V domains shown)
VH: B1 VH with G32S, D33S, H52S, A58S, N67S, R77K, D100E, N104S
notes: as for B1
B4: anti-CD22 heavy chain-only antibody with the VH of SEQ ID NO: 47 (antibody, V domains shown)
VH: B1 VH with G27D, D33G, H52S, A58S, R77K, D100E, N104S
notes: as for B1
B5: anti-CD22 heavy chain-only antibody with the VH of SEQ ID NO: 48 (antibody, V domains shown)
VH: B1 VH with G27D, Q41H, R77K, D100E, N104S
notes: as for B1
B6: anti-CD22 heavy chain-only antibody with the VH of SEQ ID NO: 50 (antibody, V domains shown)
VH: B1 VH with G27D, H52N, R77K
notes: as for B1
B7: anti-CD22 heavy chain-only antibody with the VH of SEQ ID NO: 62 (antibody, V domains shown)
VH: B1 VH with G32S, D33S, K83N, D100E, N104S
notes: as for B1
B8: anti-CD22 heavy chain-only antibody with the VH of SEQ ID NO: 54 (antibody, V domains shown)
VH: B1 VH with D100E
notes: as for B1
B9: anti-CD22 heavy chain-only antibody with the VH of SEQ ID NO: 60 (antibody, V domains shown)
VH: B1 VH with G32S, D33S, H52S, A58S, N67S, R77K, T98A, D100E, N104S
notes: as for B1
B10: anti-CD22 heavy chain-only antibody with the VH of SEQ ID NO: 45 (antibody, V domains shown)
VH: B1 VH with G27D, H52S, A58S, N67S, R77K, D100E, N104S
notes: as for B1
B11: anti-CD22 heavy chain-only antibody with the VH of SEQ ID NO: 61 (antibody, V domains shown)
VH: B1 VH with G32S, D33S, H52S, R77K, D100E, N104S
notes: as for B1
B12: anti-CD22 heavy chain-only antibody with the VH of SEQ ID NO: 71 (antibody, V domains shown)
VH: B1 VH with G32S, D33S, H52S, K83N, D100E
notes: as for B1
B13: anti-CD22 heavy chain-only antibody with the VH of SEQ ID NO: 58 (antibody, V domains shown)
VH: B1 VH with G32S, D33S, H52S, A58S, N67S, K83N, D100E, N104S
notes: as for B1
B14: anti-CD22 heavy chain-only antibody with the VH of SEQ ID NO: 59 (antibody, V domains shown)
VH: B1 VH with G27D, G32S, D33S, H52S, A58S, N67S, R77K, D100E
notes: as for B1
B15: anti-CD22 heavy chain-only antibody with the VH of SEQ ID NO: 56 (antibody, V domains shown)
VH: B1 VH with G32S, D33S, A58V, R77K, V94A
notes: as for B1
B16: anti-CD22 heavy chain-only antibody with the VH of SEQ ID NO: 69 (antibody, V domains shown)
VH: B1 VH with G32S, D33S, H52S, A58S, N67S, R77K, D100E
notes: as for B1
B17: anti-CD22 heavy chain-only antibody with the VH of SEQ ID NO: 51 (antibody, V domains shown)
VH: B1 VH with G32S, D33S, H52S, A58S, N67S, R77K
notes: as for B1
B18: anti-CD22 heavy chain-only antibody with the VH of SEQ ID NO: 73 (antibody, V domains shown)
VH: B1 VH with G32S, D33S, H52S, A58V, R77K, D100E, N104S
notes: as for B1
B19: anti-CD22 heavy chain-only antibody with the VH of SEQ ID NO: 46 (antibody, V domains shown)
VH: B1 VH with G27D, H52N, R77K, D100E, N104S
notes: as for B1
B20: anti-CD22 heavy chain-only antibody with the VH of SEQ ID NO: 53 (antibody, V domains shown)
VH: B1 VH with G27D, H52S, S56T, A58S, N67S, R77K, D100E
notes: as for B1
B21: anti-CD22 heavy chain-only antibody with the VH of SEQ ID NO: 52 (antibody, V domains shown)
VH: B1 VH with G27D, H52S, A58S, N67S, R77K, D100E
notes: as for B1
B22: anti-CD22 heavy chain-only antibody with the VH of SEQ ID NO: 57 (antibody, V domains shown)
VH: B1 VH with G32S, D33S, A58V, R77K
notes: as for B1
B23: anti-CD22 heavy chain-only antibody with the VH of SEQ ID NO: 49 (antibody, V domains shown)
VH: B1 VH with G27D, H52N, R77K, D100E
notes: as for B1
B24: anti-CD22 heavy chain-only antibody with the VH of SEQ ID NO: 72 (antibody, V domains shown)
VH: B1 VH with G32S, D33S, H52S, K83N, V94M, D100E
notes: as for B1
B25: anti-CD22 heavy chain-only antibody with the VH of SEQ ID NO: 68 (antibody, V domains shown)
VH: B1 VH with G32S, D33S, H52S, A58V, R77K, D100E
notes: as for B1
B26: anti-CD22 heavy chain-only antibody with the VH of SEQ ID NO: 64 (antibody, V domains shown)
VH: B1 VH with G32S, D33S, R77K
notes: as for B1
B27: anti-CD22 heavy chain-only antibody with the VH of SEQ ID NO: 44 (antibody, V domains shown)
VH: B1 VH with K66E, R77K
notes: as for B1
B28: anti-CD22 heavy chain-only antibody with the VH of SEQ ID NO: 65 (antibody, V domains shown)
VH: B1 VH with G32S, D33S, H52S, K83N, D100E, N104S
notes: as for B1
B29: anti-CD22 heavy chain-only antibody with the VH of SEQ ID NO: 67 (antibody, V domains shown)
VH: B1 VH with S30T, G32S, D33S, H52S, A58S, N67S, R77K
notes: as for B1
B30: anti-CD22 heavy chain-only antibody with the VH of SEQ ID NO: 70 (antibody, V domains shown)
VH: B1 VH with K13R, G32S, D33S, H52S, A58S, N67S, R77K, D100E, N104S
notes: as for B1

target: T1, human CD22 protein (recombinant CD22 …); experiment: ELISA on recombinant CD22 extracellular domain and/or cell binding

Binding result, binds:
B1
B2
B3
B4
B5
B6
B7
B8
B9
B10
B11
B12
B13
B14
B15
B16
B17
B18
B19
B20
B21
B22
B23
B24
B25
B26
B27
B28
B29
B30

target: T2, human CD22 on CD22-positive Burkitt's …; experiment: cell binding, Daudi cells
Description: Binding to CD22 positive cells was assessed by flow cytometry (Guava easyCyte 8HT, EMD Millipore) using the Daudi cell line (ATCC). Briefly, 100,000 target cells were stained with a dilution series of purified UniAbs™ for 30 minutes at 4° C. Following incubation, the cells were washed twice with flow cytometry buffer (1×PBS, 1% BSA, 0.1% NaN_3) and stained with goat F(ab')2 anti-human IgG conjugated to R-phycoerythrin (PE) (Southern Biotech, cat. #2042-09) to detect cell-bound antibodies. After a 20-minute incubation at 4° C., the cells were washed twice with flow cytometry buffer and then mean fluorescence intensity (MFI) was measured by flow cytometry. EC50 values were calculated using GraphPad Prism 7. Binding to *cynomolgus* CD22 positive cells was determined using the same protocol with the following modifications: the target cells were from CHO cells stably transfected to express the extracellular domain of *cynomolgus* CD22 and each antibody was tested at a single concentration (~1.7 µg/mL) so EC50 values were not calculated.

Binding result, binds:
B1
B2
B3
B4
B5
B6
B7
B8
B9
B10
B11
B12
B13
B14
B15
B16
B17
B18
B19
B20
B21
B22
B23
B24
B25
B26
B27
B28
B29
B30

— patent US11873336 (TENEOBIO, dated 2024)
